According to PMC6580467:
One block for each binder: values may come before it.

Molecular target: C-type lectin-like receptor 2 (CLEC-2) on platelets (human (endogenous in platelets of healthy donors)) (UniProt Q9P126)
Sequence of UniProt Q9P126 (Q9P126 whole entry): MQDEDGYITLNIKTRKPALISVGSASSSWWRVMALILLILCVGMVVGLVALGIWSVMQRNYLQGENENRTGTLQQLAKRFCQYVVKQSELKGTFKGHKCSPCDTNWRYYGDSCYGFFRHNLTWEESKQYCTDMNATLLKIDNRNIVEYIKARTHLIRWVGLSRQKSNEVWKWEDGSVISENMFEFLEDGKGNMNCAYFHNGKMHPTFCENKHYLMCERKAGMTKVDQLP

- inhibition by mAb SZ168 (10, 15 μg/mL) of platelet aggregation induced by NCI-H226 cells in human platelet-rich plasma; maximal inhibition ratio: 74.2%
- inhibition by mAb SZ168 (15, 20 μg/mL) of platelet aggregation induced by C8161 cells in human platelet-rich plasma; maximal inhibition ratio at 20 μg/mL: 73.9%
- inhibition by mAb SZ168 (20, 25 μg/mL) of platelet aggregation induced by CNE-2 cells in human platelet-rich plasma; maximal inhibition ratio at 25 μg/mL: 77.1%
B1: Podoplanin (PDPN), endogenous on human cancer cell lines (natural protein)
chain: ASTGQPEDDTETTGLEGGVAMPGAEDDVVTPGTSEDRYKSGLTTLVATSVNSVTGIRIEDLPTSESTVHAQEQSPSATASNVATSHSTEKVDGDTQTTVEKDGLSTVTLVGIIVGVLLAIGFIGAIIVVVMRKMSGRYSP

- inhibition by mAb SZ168 (10, 15 μg/mL) of platelet aggregation induced by CHO/hPDPN cells in human platelet-rich plasma; maximal inhibition ratio: 72.6%
B2: Human podoplanin expressed on CHO cells (CHO/hPDPN) (natural protein)
chain: B1 chain
